Test [1] has as its target T1, EGFR fused to SNAP-tag, expressed on transfected HEK293T cells (UniProt P00533 25-1210, terbium cryptate donor fluorochrome (SNAP-Tb) covalently on the SNAP-tag).
T1 construct: whole, on cells; also called EGFR-ST; ErbB1-ST; not shown: SNAP-tag and FLAG tag (Cisbio plasmid)
Put plainly: HTRF on living cells; D4E in the presence of a large amount of monovalent D10 blocking the D10 epitope.

Test [2] concerns the target T1, EGFR fused to SNAP-tag, expressed on …. Put plainly: time resolved fluorescence (HTRF) on EGFR-ST transfected HEK293T cells; apparent affinity.
Test [3] shares this target. Put plainly: HTRF on living cells; D4E in the presence of a large amount of monovalent E10 blocking the E10 epitope.

Data on three molecules can be found in US20170190787A1 (INSERM INSTITUT NATIONAL DE LA SANT ET DE LA RECHERCHE M …, published 2017).

B1: biparatopic single domain antibody D4E (D10 - 4x(G4S) linker - E10) (bispecific antibody)
chain: EVQLQESGGGLVQAGGSLRLSCAVSISRTIFSLYAMEWYRQPPGKQRDLVARIYRSGDTNYADSVKGRFTISRDNAKNTVYLQMNSLKPEDTGVYYCNSPAQDWPWGQGTQVTVSSAAAGGGGSGGGGSGGGGSGGGGSMAQVQLQESGGGLAQAGGSLRLSCAASGRTLSSYDMGWFRQAPGKEREFVTAINWGDLSTYYADSVKGRFTISRDNAKNTVYLQMNSLKPEDTAVYYCAARLRYTVSDPIFSRPDRYNYWGQGTQVTVSSAAAEQKLISEEDLNGAAHHHHHHGS
notes: also called bisdAb D4E
With B1, the Kd in test [1] came to 100 nM; in test [2], 6 nM; in test [3], 22 nM.

B2: biparatopic single domain antibody D6E (D10 - 6x(G4S) linker - E10) (bispecific antibody)
chain: EVQLQESGGGLVQAGGSLRLSCAVSISRTIFSLYAMEWYRQPPGKQRDLVARIYRSGDTNYADSVKGRFTISRDNAKNTVYLQMNSLKPEDTGVYYCNSPAQDWPWGQGTQVTVSSAAAGGGGSGGGGSGGGGSGGGGSGGGGSGGGGSMAQVQLQESGGGLAQAGGSLRLSCAASGRTLSSYDMGWFRQAPGKEREFVTAINWGDLSTYYADSVKGRFTISRDNAKNTVYLQMNSLKPEDTAVYYCAARLRYTVSDPIFSRPDRYNYWGQGTQVTVSSAAAEQKLISEEDLNGAAHHHHHHGS
notes: also called bisdAb D6E
Turning to B2, in test [2], the Kd turned out to be 6 nM.

B3: biparatopic single domain antibody D2E (D10 - 2x(G4S) linker - E10) (bispecific antibody)
chain: EVQLQESGGGLVQAGGSLRLSCAVSISRTIFSLYAMEWYRQPPGKQRDLVARIYRSGDTNYADSVKGRFTISRDNAKNTVYLQMNSLKPEDTGVYYCNSPAQDWPWGQGTQVTVSSAAAGGGGSGGGGSMAQVQLQESGGGLAQAGGSLRLSCAASGRTLSSYDMGWFRQAPGKEREFVTAINWGDLSTYYADSVKGRFTISRDNAKNTVYLQMNSLKPEDTAVYYCAARLRYTVSDPIFSRPDRYNYWGQGTQVTVSSAAAEQKLISEEDLNGAAHHHHHHGS
notes: also called bisdAb D2E
On to B3, for which the Kd in test [2] is 6 nM.
